Drawing on article PMC6443839, this text covers stoichiometry N for one substance.

The target of this test is amyloid-β protein (Aβ) produced from human APP770 bearing the Swedish mutation (APPswe) in rat hippocampal neurons (human). Put plainly: SDS-PAGE with western blot. For orientation: A western blot detects proteins with antibodies after separation by electrophoresis.

In general, stoichiometry N refers to a count of units in the complex or per binding partner. As to “amyloid-β protein (Aβ) produced from human APP770 bearing the Swedish mutation (APPswe) in rat hippocampal neurons (peptide)”, the stoichiometry N is 3.
